Measurements as given in PMC3733153 (Journal of Experimental Botany, 2013).

T1: GST-GDI1(3D), phosphomimetic form GDI1 S45D S48D T52D (Arabidopsis, UniProt Q9SFC6 1-240, S45D | S48D | T52D)
T1 sequence: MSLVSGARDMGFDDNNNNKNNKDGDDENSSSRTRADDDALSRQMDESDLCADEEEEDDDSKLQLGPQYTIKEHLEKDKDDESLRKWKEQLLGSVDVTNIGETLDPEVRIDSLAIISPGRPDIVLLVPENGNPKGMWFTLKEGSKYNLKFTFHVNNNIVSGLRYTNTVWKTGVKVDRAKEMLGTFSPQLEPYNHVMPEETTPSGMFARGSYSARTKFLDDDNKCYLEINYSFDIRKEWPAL

B1: His-ROP10 (natural protein)
chain: not shown
B2: His-ROP6 (natural protein)
chain: not shown
B3: His-ROP2 (natural protein)
chain: not shown

Biological target: T1, GST-GDI1(3D), phosphomimetic form GDI1 …
Experiment: pull-down

Row | Binder | binding result
1 | B1 | binds
2 | B2 | binds
3 | B3 | binds
